Biological target: T1, peptide TM1 (N'-TRVTSFLDWIHEQMERDLKT-C')
T1 construct: Peptide antigen coated on the plate
T1 peptide: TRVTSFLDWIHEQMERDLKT
Test: binding implied by the name and by sequencing of ELISA positive clones (phage ELISA on coated TM1); not said in so many words

binding result: binds
B1: TM1 scFV (scFv)
scFv: ETTLTQSPSSLSASVGDRVTITCRTSQTINNYLNWYQQKPGKAPKVLIFGASRLQSGVPSRFSGSGSGTHFTLTITSLQPEDVATYYCQQSYGTPYTFGQGTKVEIKVDITSYNVYYTKLSLEQVQLQQWGAGLLKPSETLSLTCAIYNGSFGGYYWNWIRQPPGKGLEWIGEINQRESTNFNPSFKSRVTMSVDTSNNQFSLRLSSLTAADTAVYFCARGLYYDTTGFFDAFAVWGQGTTVTVSHLGLMGHHHHHH

Reference: US20060057632A1 (KEIO UNIVERSITY, published 2006)
